Common to all, as to test: cell-based or functional assay
In assay [1] the target is PfRH5 from Plasmodium falciparum strain HB3 (Plasmodium falciparum).
The target in assay [2] is PfRH5 from Plasmodium falciparum strain D10 (Plasmodium falciparum).
The target in assay [3] is PfRH5 from Plasmodium falciparum strain RF7 (Plasmodium falciparum).
In assay [4] the target is PfRH5 from Plasmodium falciparum strain Dd2 (Plasmodium falciparum).
Assay [5] addresses PfRH5 from Plasmodium falciparum strain FCR-1/FVO (Plasmodium falciparum).
Assay [6] concerns the target PfRH5 from Plasmodium falciparum strain Cam3.II (Plasmodium falciparum).
Assay [7] has as its target PfRH5 from Plasmodium falciparum strain 7G8 (Plasmodium falciparum).
The target in assay [8] is PfRH5 from Plasmodium falciparum strain W2-mef (Plasmodium falciparum).
Assay [9] deals with T1, PfRH5 from Plasmodium falciparum strain 3D7 (Plasmodium falciparum, UniProt Q8IFM5 25-526).
T1 sequence: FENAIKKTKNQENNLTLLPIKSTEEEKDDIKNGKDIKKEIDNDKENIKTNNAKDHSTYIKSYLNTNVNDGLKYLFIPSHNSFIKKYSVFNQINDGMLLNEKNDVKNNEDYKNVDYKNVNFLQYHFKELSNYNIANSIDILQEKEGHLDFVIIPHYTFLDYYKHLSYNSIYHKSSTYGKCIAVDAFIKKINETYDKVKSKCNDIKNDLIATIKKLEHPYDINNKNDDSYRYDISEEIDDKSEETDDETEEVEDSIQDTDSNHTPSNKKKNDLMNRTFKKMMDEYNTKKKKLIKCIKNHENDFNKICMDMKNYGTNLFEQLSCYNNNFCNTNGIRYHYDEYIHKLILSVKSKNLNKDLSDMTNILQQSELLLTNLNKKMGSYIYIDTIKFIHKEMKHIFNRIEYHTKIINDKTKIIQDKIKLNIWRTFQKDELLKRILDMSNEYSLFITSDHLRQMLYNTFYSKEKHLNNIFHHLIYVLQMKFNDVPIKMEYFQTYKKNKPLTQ

B1: H1H29215P2 (antibody, V domains shown)
VH: QVQLQQWGAGLLKPSETLSLTCAVSDESFSDYYWTWIRQPPGKGLEWIGEITHSGSTHYNPSLKSRVTLSVDTSKNHFSLSLNSVTAADTAIYYCARGGDYGGLLDYWGQGTLVTVSS
VL: not shown
Consider B1, for which the “Max growth inhibition (%)” value in assay [1] was 30.1%; in [2], 35.8%; in assay [3], 11.3%; in assay [4] it was 22.8%; in assay [5] it was 54%; in assay [6], 27.2%. In addition, the results for the “Max growth inhibition (%)” value in assay [7] and in assay [8] were 33.2% and 37.2%, respectively.

B2: H1H29207P2 (antibody, V domains shown)
VH: EVQLVESGGGLVQPGGSLRLSCAASGFTFSSYAMNWVRQAPGKGLEWVSAVSGSADITNYADSVKGRFTISRDNSKHTLYLQMNSLRAEDTAVYYCAKDKVYNWNYGIYYGMDVWGQGTTVTVSS
VL: not shown
Turning to B2, the “Max growth inhibition (%)” value in assay [1] amounted to 49.3%; in [2], 73.9%; in [3], 31.1%; in assay [4] it was 61.3%; in assay [5] it was 69.2%; in [6], 45.3%. For the same molecule, the “Max growth inhibition (%)” value in assay [7] was found to be 58.7%; in assay [8], 65.2%.

B3: H1H29141P (antibody, V domains shown)
VH: QVQLVESGGGVVQPGRSLRLSCAASGFTFSSYGMHWVRQAPGKGLEWVTFISFDERNKYYADSVKGRFTISRDNSKNTLYLQMNSLRAEDTAMYYCASEVGYSFGHDAFDIWGQGTMVTVSS
VL: not shown
As to B3, the “Max growth inhibition (%)” value in [1] was 50%; in assay [2] it was 50%; in [9], 48.2%; in assay [3], 32.1%; in assay [4], 65.3%; in [5], 74.2%. In addition, the “Max growth inhibition (%)” value in [6] was determined as 49.3%; in assay [7], 54.6%; in [8], 56.2%.

B4: H1H29138P (antibody, V domains shown)
VH: QVQLVESGGGVVQPGRSLRLSCAASGFTFSTYGMHWVRQAPGKGLEWVAVIWYDGTNKYYADSVKGRFTISRDNSKNTLYLQMISLRAEDTAVYYCARDPSGGDHYYYYGMDVWGQGTTVTVSS
VL: DIQMTQSPSSLSASVGDRITITCQASQDISNYLNWYQQKPGKAPNLLISDASDLETGVPSRFSGSGSGTDFTFTISSLQPEDFATYYCQQYDNIPITFGQGTRLEIKR
On to B4, for which the “Max growth inhibition (%)” value worked out at 51.4% in assay [1]; 57.1% in [2]; 58.5% in [9]; 51.4% in [3]; 74.4% in [4]; 84.1% in assay [5]. In addition, the “Max growth inhibition (%)” value in assay [6] was determined as 48.7%; in [7], 57.4%; in [8], 66.4%.

B5: H1H29196P2 (antibody, V domains shown)
VH: EVQLVESGGDLVQPGGSLRLSCAASGFAVNGDYFSWVRQAPGKGLEWISVIYSSGNTYYADSVKGRFTISRHNSKNTLYLQMSSLRPEDTAVYYCARDFPPMSGADYWGQGTLVTVSS
VL: not shown
Turning to B5, the “Max growth inhibition (%)” value is 26.8% in assay [1]; 14.3% in assay [2]; 3.78% in assay [3]; -1.65% in [4]; 21.9% in assay [5]; 6.09% in [6]. Besides, the “Max growth inhibition (%)” value came out at 23.4% in assay [7] and 17% in [8].

B6: H1H29192P2 (antibody, V domains shown)
VH: QVQLVQSGAEVKKPGASVRVSCMASGYTFTGYYMHWVRQAPGQGLEWMGWINPNSGGTKYAQKFQGRVTMTRDTSISTAYMELSRLRSDDTAVYYCAREEVDDFWSGYLDYWGQGTLVTVSS
VL: not shown
As to B6, the “Max growth inhibition (%)” value was 5.62% in [1]; 8.7% in assay [2]; -7.69% in assay [3]; -15.2% in [4]; 15.1% in [5]; -3.38% in [6]. Further, the “Max growth inhibition (%)” value in assay [7] turned out to be 12.4%; in assay [8] it was 4.35%.

B7: H1H29198P2 (antibody, V domains shown)
VH: QVQLVQSGAEVKKPGASVKVSCKVSGYTLTELSMHWVRQAPGKGLEWMGGFDPEHGKIIYAQKFQGRVTMTEDTSTDTAYMELSSLRSEDTAVYYCATFYNWNSYYFGMDVWGHGTTVTVSS
VL: not shown
With B7, the “Max growth inhibition (%)” value in assay [1] turned out to be 15.5%; in assay [2] it was 4.38%; in [3] it was 1.53%; in assay [4], 10.1%; in assay [5], 11.1%; in assay [6], 14.7%. Moreover, the “Max growth inhibition (%)” value in [7] was 5.31%; in assay [8], -3.61%.

B8: H1H29146P2 (antibody, V domains shown)
VH: EVQLVESGGGLVQPGGSLQLSCAASGFAFSDSAIYWVRQASGKGLEWVGRIRNKANRFATAYGASVKGRFSIHRDDSKNTAYLQMNSLKTEDTAVYYCARHGHDTLTEGYGMDVWGQGTTVTVSS
VL: not shown
For the molecule B8, the “Max growth inhibition (%)” value in assay [1] worked out at 33.9%; in [2] it was 10.8%; in assay [9] it was 8.57%; in assay [3] it was 5.97%; in assay [5], 7.32%; in [6] it was 8.18%. Besides, the results for the “Max growth inhibition (%)” value in assay [7] and in assay [8] were 19.1% and 0.57%, respectively.

B9: H1H29125P (antibody, V domains shown)
VH: QVQLVESGGGVVQPGRSLRLSCAASGFTFSSYGMHWVRQAPGKGLEWMAVISYDGSNKYYADSVKGRFTISRDNSKNTLFLQMNSLRPEDTAVYYCAQDGSSAIYYFYGMDVWGQGTTVTVSS
VL: DIQMTQSPSSLSASIGDRVTITCRASQDINNYLAWFQQKPGKAPKSLIYAASSLQSGVPSKFSGSGSGTDFTLTISSLQPEDFATYYCLQYNSYHPTFGQGTKLEIKR
For B9, the “Max growth inhibition (%)” value in assay [2] is 75.4%; in assay [9], 51.1%; in assay [3], 21%; in assay [4], 51.4%; in [5], 67.6%; in [6] it was 42.7%. Also, the “Max growth inhibition (%)” value came out at 47% in assay [7] and 64.6% in [8].

B10: H1H29209P2 (antibody, V domains shown)
VH: QLQLQESGPGLVKPSETLSLTCTVSGGSISSRSHYWGWIRQPPGKGLEWIGSIYYSGSTYYNPSLKSRVTISVDTSKNQFSLKLSSVTAADTAVYYCARLGWYAEEAFEIWGQGTMVTVSS
VL: not shown
For the molecule B10, the “Max growth inhibition (%)” value was 52.4% in assay [1]; 72.7% in [2]; 11.9% in [3]; 38.1% in [4]; 19.2% in assay [5]; 47.3% in assay [6]. The “Max growth inhibition (%)” value in [7] amounted to 49.9%; in [8], 39.6%.

B11: H1H29214P2 (antibody, V domains shown)
VH: QLQLQESGPGLVKPSETLSLTCTVSGGSISSSSYYWGWIRQPPGKGLEWIGSIYYSGSTYYNPSLKSRVTISVDTSKNQFSLKLSSVTAADTAVYYCARQGRWERENFDYWGQGTLVTVSS
VL: not shown
As for B11, the “Max growth inhibition (%)” value in assay [1] was 59.1%; in assay [2] it was 76.5%; in assay [3], 11.2%; in assay [4] it was 47.2%; in assay [5] it was 13.1%; in [6] it was 46.7%. In addition, the results for the “Max growth inhibition (%)” value in assay [7] and in assay [8] were 56.7% and 52.7%, respectively.

B12: H1H29149P2 (antibody, V domains shown)
VH: QVQLQESGPGLVKPSQTLSLTCTVSGGSISSGGYYWNWIRQHPGKGLEWIGYIYYSGSTYYNPSLKSRVTISVDTSKNQFSLKLGSVTAADTAVYYCARAPPYNWFDYWGQGTLVTVSS
VL: not shown
For the molecule B12, the “Max growth inhibition (%)” value in [1] came out at 40%; in assay [2], 66%; in assay [9], 44.1%; in assay [3], 14.7%; in [5], 58%; in [6], 36.2%. Moreover, the “Max growth inhibition (%)” value in assay [8] was found to be 42.8%.

B13: H1H29163P2 (antibody, V domains shown)
VH: QVQLVQSGAEVKKPGASVKVSCKTSGYTFTAYYIHWVRQAPGQGLEWMGWINPNNGDTNYALRFQGRVTMTRDMSINTAYMELRGLRSDDTAVYYCARDDLAAAGIGWFDSWGQGTLVTVSS
VL: not shown
On to B13, for which the “Max growth inhibition (%)” value in assay [1] was 56.5%; in assay [9], 55.6%; in [3], 10.7%; in assay [4], 61.2%; in [5], 64.5%; in assay [6], 46.7%. In addition, the “Max growth inhibition (%)” value in assay [7] turned out to be 62.6%; in [8], 63.7%.

Values taken from patent US20210024625A1 (published 2021).
